The results in this text go back to patent US20260001928A1 (CORTERIA PHARMACEUTICALS, priority 2022, published 2026).

The target of assay [1] is T1, CRF1R receptor (UniProt P34998 24-415, limits assumed).
T1 sequence (looked up): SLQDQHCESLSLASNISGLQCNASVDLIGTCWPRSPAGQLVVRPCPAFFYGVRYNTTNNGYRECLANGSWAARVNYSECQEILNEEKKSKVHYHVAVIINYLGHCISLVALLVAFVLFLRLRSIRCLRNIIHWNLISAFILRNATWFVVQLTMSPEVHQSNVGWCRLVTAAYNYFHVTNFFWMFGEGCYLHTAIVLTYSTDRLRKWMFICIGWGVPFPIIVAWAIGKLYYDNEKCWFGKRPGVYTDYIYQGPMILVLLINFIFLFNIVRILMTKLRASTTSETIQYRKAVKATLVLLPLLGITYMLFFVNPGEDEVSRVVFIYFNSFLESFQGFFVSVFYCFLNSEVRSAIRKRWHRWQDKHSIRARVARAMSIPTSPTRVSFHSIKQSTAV
Put plainly: cell-based or functional assay.

For assay [2], the target named is human corticotropin-releasing factor 2a (CRF2a receptor) (human), Q13324. Put plainly: cell-based or functional assay.

*1 amine or outer side, *2 acyl side, *3 side chain or, on linkers, in order; H or OH if unused. Where no end group is shown, it is not given here. Side-chain parts run from the residue outwards. [ ]: non-standard residue; d: D form. The star is where a group is joined. C18 diacid = O=C(O)CCCCCCCCCCCCCCCCC(=O)*; γGlu = O=C(O)[C@H](CCC(=O)[*:2])N[*:1]; NMeI = CC[C@H](C)[C@H](NC)C(=O)O; Api = NC1(C(=O)O)CCNCC1; AEEA = NCCOCCOCC(=O)O; Aib = CC(C)(N)C(=O)O

human corticotropin-releasing factor 2a (CRF2a receptor) (human), Q13324, sequence (Q13324 20-411): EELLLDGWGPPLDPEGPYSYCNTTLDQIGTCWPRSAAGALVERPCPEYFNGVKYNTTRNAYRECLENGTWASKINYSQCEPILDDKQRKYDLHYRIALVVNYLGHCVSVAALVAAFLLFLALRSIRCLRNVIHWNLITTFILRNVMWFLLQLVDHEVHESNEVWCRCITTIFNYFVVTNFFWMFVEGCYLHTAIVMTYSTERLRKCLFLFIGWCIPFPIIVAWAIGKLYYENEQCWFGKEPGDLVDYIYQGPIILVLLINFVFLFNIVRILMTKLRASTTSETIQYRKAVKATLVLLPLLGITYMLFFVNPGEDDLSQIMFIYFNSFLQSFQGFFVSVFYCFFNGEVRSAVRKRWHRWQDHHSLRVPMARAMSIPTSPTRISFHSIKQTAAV

B1: SEQ ID NO 117 (peptide)
peptide: [NMeI]VLSLD[dV]PIKLK([AEEA-AEEA-γGlu-C18 diacid])KILLEQEKQKKQREQAETN[Api]QILAQV-NH2
modifications: N-terminus assumed
SMILES: CC[C@H](C)[C@H](NC)C(=O)N[C@H](C(=O)N[C@@H](CC(C)C)C(=O)N[C@@H](CO)C(=O)N[C@@H](CC(C)C)C(=O)N[C@@H](CC(=O)O)C(=O)N[C@@H](C(=O)N1CCC[C@H]1C(=O)N[C@H](C(=O)N[C@@H](CCCCN)C(=O)N[C@@H](CC(C)C)C(=O)N[C@@H](CCCCNC(=O)COCCOCCNC(=O)COCCOCCNC(=O)CC[C@H](NC(=O)CCCCCCCCCCCCCCCCC(=O)O)C(=O)O)C(=O)N[C@@H](CCCCN)C(=O)N[C@H](C(=O)N[C@@H](CC(C)C)C(=O)N[C@@H](CC(C)C)C(=O)N[C@@H](CCC(=O)O)C(=O)N[C@@H](CCC(N)=O)C(=O)N[C@@H](CCC(=O)O)C(=O)N[C@@H](CCCCN)C(=O)N[C@@H](CCC(N)=O)C(=O)N[C@@H](CCCCN)C(=O)N[C@@H](CCCCN)C(=O)N[C@@H](CCC(N)=O)C(=O)N[C@@H](CCCNC(=N)N)C(=O)N[C@@H](CCC(=O)O)C(=O)N[C@@H](CCC(N)=O)C(=O)N[C@@H](C)C(=O)N[C@@H](CCC(=O)O)C(=O)N[C@H](C(=O)N[C@@H](CC(N)=O)C(=O)NC1(C(=O)N[C@@H](CCC(N)=O)C(=O)N[C@H](C(=O)N[C@@H](CC(C)C)C(=O)N[C@@H](C)C(=O)N[C@@H](CCC(N)=O)C(=O)N[C@H](C(N)=O)C(C)C)[C@@H](C)CC)CCNCC1)[C@@H](C)O)[C@@H](C)CC)[C@@H](C)CC)C(C)C)C(C)C
For B1, in assay [1], the “Emax (% I)” value is 3%. In assay [2], this molecule yielded an EC50 [nM] (cAMP) of 0.63 nM.

B2: SEQ ID NO 141 (peptide)
peptide: [NMeI]VLSLD[dV]PIKLK([γGlu-C18 diacid])KILLEQEKQKKQREQAETN[Api]QILAQV-NH2
modifications: N-terminus assumed
SMILES: CC[C@H](C)[C@H](NC)C(=O)N[C@H](C(=O)N[C@@H](CC(C)C)C(=O)N[C@@H](CO)C(=O)N[C@@H](CC(C)C)C(=O)N[C@@H](CC(=O)O)C(=O)N[C@@H](C(=O)N1CCC[C@H]1C(=O)N[C@H](C(=O)N[C@@H](CCCCN)C(=O)N[C@@H](CC(C)C)C(=O)N[C@@H](CCCCNC(=O)CC[C@H](NC(=O)CCCCCCCCCCCCCCCCC(=O)O)C(=O)O)C(=O)N[C@@H](CCCCN)C(=O)N[C@H](C(=O)N[C@@H](CC(C)C)C(=O)N[C@@H](CC(C)C)C(=O)N[C@@H](CCC(=O)O)C(=O)N[C@@H](CCC(N)=O)C(=O)N[C@@H](CCC(=O)O)C(=O)N[C@@H](CCCCN)C(=O)N[C@@H](CCC(N)=O)C(=O)N[C@@H](CCCCN)C(=O)N[C@@H](CCCCN)C(=O)N[C@@H](CCC(N)=O)C(=O)N[C@@H](CCCNC(=N)N)C(=O)N[C@@H](CCC(=O)O)C(=O)N[C@@H](CCC(N)=O)C(=O)N[C@@H](C)C(=O)N[C@@H](CCC(=O)O)C(=O)N[C@H](C(=O)N[C@@H](CC(N)=O)C(=O)NC1(C(=O)N[C@@H](CCC(N)=O)C(=O)N[C@H](C(=O)N[C@@H](CC(C)C)C(=O)N[C@@H](C)C(=O)N[C@@H](CCC(N)=O)C(=O)N[C@H](C(N)=O)C(C)C)[C@@H](C)CC)CCNCC1)[C@@H](C)O)[C@@H](C)CC)[C@@H](C)CC)C(C)C)C(C)C
Turning to B2, the “Emax (% I)” value in assay [1] was 32%. The molecule also showed an EC50 [nM] (cAMP) in assay [2] of 0.16 nM.

B3: SEQ ID NO 23 (peptide)
peptide: [NMeI]VLSLD[dV]PIKLK([γGlu-C18 diacid])QILLKQERQKKQREQAEKN[Aib]QILEQV-NH2
modifications: N-terminus assumed
SMILES: CC[C@H](C)[C@H](NC)C(=O)N[C@H](C(=O)N[C@@H](CC(C)C)C(=O)N[C@@H](CO)C(=O)N[C@@H](CC(C)C)C(=O)N[C@@H](CC(=O)O)C(=O)N[C@@H](C(=O)N1CCC[C@H]1C(=O)N[C@H](C(=O)N[C@@H](CCCCN)C(=O)N[C@@H](CC(C)C)C(=O)N[C@@H](CCCCNC(=O)CC[C@H](NC(=O)CCCCCCCCCCCCCCCCC(=O)O)C(=O)O)C(=O)N[C@@H](CCC(N)=O)C(=O)N[C@H](C(=O)N[C@@H](CC(C)C)C(=O)N[C@@H](CC(C)C)C(=O)N[C@@H](CCCCN)C(=O)N[C@@H](CCC(N)=O)C(=O)N[C@@H](CCC(=O)O)C(=O)N[C@@H](CCCNC(=N)N)C(=O)N[C@@H](CCC(N)=O)C(=O)N[C@@H](CCCCN)C(=O)N[C@@H](CCCCN)C(=O)N[C@@H](CCC(N)=O)C(=O)N[C@@H](CCCNC(=N)N)C(=O)N[C@@H](CCC(=O)O)C(=O)N[C@@H](CCC(N)=O)C(=O)N[C@@H](C)C(=O)N[C@@H](CCC(=O)O)C(=O)N[C@@H](CCCCN)C(=O)N[C@@H](CC(N)=O)C(=O)NC(C)(C)C(=O)N[C@@H](CCC(N)=O)C(=O)N[C@H](C(=O)N[C@@H](CC(C)C)C(=O)N[C@@H](CCC(=O)O)C(=O)N[C@@H](CCC(N)=O)C(=O)N[C@H](C(N)=O)C(C)C)[C@@H](C)CC)[C@@H](C)CC)[C@@H](C)CC)C(C)C)C(C)C
Consider B3, for which the “Emax (% I)” value in assay [1] came out at 35%. The same molecule had an EC50 [nM] (cAMP) in assay [2] of 0.33 nM.

B4: SEQ ID NO 138 (peptide)
peptide: [NMeI]VLSLD[dV]PIKLK([γGlu-C18 diacid])KILLEQEKQKKQREQAETNAQILAQV-NH2
modifications: N-terminus assumed
SMILES: CC[C@H](C)[C@H](NC)C(=O)N[C@H](C(=O)N[C@@H](CC(C)C)C(=O)N[C@@H](CO)C(=O)N[C@@H](CC(C)C)C(=O)N[C@@H](CC(=O)O)C(=O)N[C@@H](C(=O)N1CCC[C@H]1C(=O)N[C@H](C(=O)N[C@@H](CCCCN)C(=O)N[C@@H](CC(C)C)C(=O)N[C@@H](CCCCNC(=O)CC[C@H](NC(=O)CCCCCCCCCCCCCCCCC(=O)O)C(=O)O)C(=O)N[C@@H](CCCCN)C(=O)N[C@H](C(=O)N[C@@H](CC(C)C)C(=O)N[C@@H](CC(C)C)C(=O)N[C@@H](CCC(=O)O)C(=O)N[C@@H](CCC(N)=O)C(=O)N[C@@H](CCC(=O)O)C(=O)N[C@@H](CCCCN)C(=O)N[C@@H](CCC(N)=O)C(=O)N[C@@H](CCCCN)C(=O)N[C@@H](CCCCN)C(=O)N[C@@H](CCC(N)=O)C(=O)N[C@@H](CCCNC(=N)N)C(=O)N[C@@H](CCC(=O)O)C(=O)N[C@@H](CCC(N)=O)C(=O)N[C@@H](C)C(=O)N[C@@H](CCC(=O)O)C(=O)N[C@H](C(=O)N[C@@H](CC(N)=O)C(=O)N[C@@H](C)C(=O)N[C@@H](CCC(N)=O)C(=O)N[C@H](C(=O)N[C@@H](CC(C)C)C(=O)N[C@@H](C)C(=O)N[C@@H](CCC(N)=O)C(=O)N[C@H](C(N)=O)C(C)C)[C@@H](C)CC)[C@@H](C)O)[C@@H](C)CC)[C@@H](C)CC)C(C)C)C(C)C
Turning to B4, in assay [1], the “Emax (% I)” value was 10%. In addition, in assay [2], the EC50 [nM] (cAMP) was 0.05 nM.
